Test results published in paper PMC3325936.

What was measured:
[1] = target: GST:Anillin (608–940) (human) (UniProt Q9NQW6); assay: pull-down; lysates of transfected HEK-293 cells diluted by 0.5-fold, 0.25-fold or 0.05-fold, pulled down with 200 nM GST-tagged AHD; western blot for Myc, % bound protein
[2] = target: GST:Anillin (608–940) (human) (UniProt Q9NQW6); assay: pull-down; purified MBP- or GST-tagged anillin fragments (200 nM) as bait; lysates of transfected HEK-293 cells; 50 mM Tris pH7.6, 150 mM NaCl, 5 mM MgCl2, 0.5% Triton X-100, 1 mM DTT, 4°C; western blot for Myc

Chain of UniProt Q9NQW6 (Q9NQW6 645-977): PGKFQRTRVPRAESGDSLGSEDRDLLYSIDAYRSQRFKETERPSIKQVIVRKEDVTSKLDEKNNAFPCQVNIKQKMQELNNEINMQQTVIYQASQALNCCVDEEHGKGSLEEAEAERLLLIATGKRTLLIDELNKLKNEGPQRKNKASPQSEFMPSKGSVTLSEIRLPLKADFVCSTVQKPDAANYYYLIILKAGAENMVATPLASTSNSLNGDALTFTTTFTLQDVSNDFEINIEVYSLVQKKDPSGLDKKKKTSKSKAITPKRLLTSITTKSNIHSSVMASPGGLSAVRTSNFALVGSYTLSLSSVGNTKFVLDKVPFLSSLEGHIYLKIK

Substance | percent of protein bound at the lowest dilution [1] | fold change of the amount pulled down against wild-type Ect2 (C-term) [2]
Myc:Ect2 (421–883) (domain or fragment) | 38% | 
Myc:Ect2 (421–883; D668G) (domain or fragment) |  | 0.5 fold lower
